Measured values reported in patent US20190307836A1 (Bicycle, published 2019).
Starred links: 1 amine or outer side, 2 acyl side, 3 side chain; linkers in the order of their positions; H or OH if unused. Positions of bridges follow the written chain, without caps; N, C: chain ends. Non-standard residues stand in square brackets, D forms with d. Chains are numbered I, II in the order given. No end group written: not given here. *: point of attachment. TATA = O=C(CC[*:1])N1CN(C(=O)CC[*:2])CN(C(=O)CC[*:3])C1; Dap(PYA) = diaminopropionic acid bearing 4-pentynoyl; 1Nal = N[C@@H](Cc1cccc2ccccc12)C(=O)O; Hyp = O=C(O)[C@@H]1C[C@@H](O)CN1; hArg = N=C(N)NCCCC[C@H](N)C(=O)O; tBuAla = CC(C)(C)C[C@H](N)C(=O)O; Nle = CCCC[C@H](N)C(=O)O; Pent4ynoyl = C#CCCC(=O)*; Dap = NC[C@H](N)C(=O)O; βAla = NCCC(=O)O; Sar = CNCC(=O)O

B1: heterotandem bicyclic peptide complex BCY11018 (peptide)
peptide 1: SDKCSAGWLTMCQXLHLCPSH
peptide 2: CXPEKPYCFADPYXCA
modifications: not fully specified; BCY8920: N-terminal acetyl; tBuAla1, D-Lys4 bearing the linker, Nle12; Ci, Cii, Ciii on TATA scaffold; BCY10861: N-terminal acetyl; K(PYA)9 bearing the linker; Ci, Cii, Ciii on TATA scaffold
B2: heterotandem bicyclic peptide complex BCY10582 (peptide)
peptide 1: SDKCSAGWLTMCQXLHLC
peptide 2: CXPEAPYCFADPYXC
modifications: not fully specified; BCY9172: N-terminal acetyl; tBuAla1, D-Ala4, Nle12; C-terminal Dap (diaminopropionic acid) bearing the linker; Ci, Cii, Ciii on TATA scaffold; BCY10045: free N-terminus (NH2-); K(PYA)9 bearing the linker; Ci, Cii, Ciii on TATA scaffold
B3: heterotandem bicyclic peptide complex BCY11377 (peptide)
peptide 1: SDKCSAGWLTMCQXLHLCPSH
peptide 2: CXPEKPYCFADPYXCA
modifications: not fully specified; BCY8920: N-terminal acetyl; tBuAla1, D-Lys4 bearing the linker, Nle12; Ci, Cii, Ciii on TATA scaffold; BCY10861: N-terminal acetyl; K(PYA)9 bearing the linker; Ci, Cii, Ciii on TATA scaffold
B4: heterotandem bicyclic peptide complex BCY10569 (peptide)
peptide 1: {Pent4ynoyl-βAla}-[Sar][Sar][Sar][Sar][Sar][Sar][Sar][Sar][Sar][Sar]CP[1Nal][dD]CM[hArg]DWSTP[Hyp]WC
peptide 2: Ac-C[tBuAla]PE[dK]PYCFADPY[Nle]CA
modifications: linker I:11-I:15-I:25, II:1-II:8-II:15 via TATA; not fully specified (C-terminus, bridges); numbers in words are those of the source; also: chains joined by PEG12 linker, triazole from PYA, linker on chain 2 D-Lys side chain
B5: heterotandem bicyclic peptide complex BCY8939 (peptide)
peptide 1: CXDWCHWTFSHGHPC
peptide 2: ACIEEGQYCFADPYXC
modifications: BCY7732: N-terminal acetyl; Nle12; C-terminal Dap (diaminopropionic acid) bearing the linker; Ci, Cii, Ciii on TATA scaffold; BCY8938: N-terminal [PYA]-[B-Ala]-[Sar10]- (linker on PYA); HArg1; Ci, Cii, Ciii on TATA scaffold
B6: heterotandem bicyclic peptide complex BCY11376 (peptide)
peptide 1: SDKCSAGWLTMCQXLHLCPSH
peptide 2: CXPKAPYCFADPYXCA
modifications: not fully specified; BCY8919: N-terminal acetyl; tBuAla1, Lys3 bearing the linker, D-Ala4, Nle12; Ci, Cii, Ciii on TATA scaffold; BCY10861: N-terminal acetyl; K(PYA)9 bearing the linker; Ci, Cii, Ciii on TATA scaffold
B7: heterotandem bicyclic peptide complex BCY10580 (peptide)
peptide 1: {Pent4ynoyl-βAla}-[Sar][Sar][Sar][Sar][Sar][Sar][Sar][Sar][Sar][Sar]SDKCSAGWLTMCQKLHLC
peptide 2: Ac-C[tBuAla]PE[dA]PYCFADPY[Nle]C[Dap]
modifications: linker I:14-I:22-I:28, II:1-II:8-II:15 via TATA; not fully specified (C-terminus); numbers in words are those of the source; also: linker to a chain's N/C-terminus via PEG12
B8: heterotandem bicyclic peptide complex BCY11017 (peptide)
peptide 1: SDKCSAGWLTMCQXLHLCPSH
peptide 2: CXPKAPYCFADPYXCA
modifications: not fully specified; BCY8919: N-terminal acetyl; tBuAla1, Lys3 bearing the linker, D-Ala4, Nle12; Ci, Cii, Ciii on TATA scaffold; BCY10861: N-terminal acetyl; K(PYA)9 bearing the linker; Ci, Cii, Ciii on TATA scaffold
B9: heterotandem bicyclic peptide complex BCY11379 (peptide)
peptide 1: SDKCSAGWLTMCQXLHLCPSH
peptide 2: CXPKAPYCFADPYXCA
modifications: not fully specified; BCY8919: N-terminal acetyl; tBuAla1, Lys3 bearing the linker, D-Ala4, Nle12; Ci, Cii, Ciii on TATA scaffold; BCY10861: N-terminal acetyl; K(PYA)9 bearing the linker; Ci, Cii, Ciii on TATA scaffold
B10: heterotandem bicyclic peptide complex BCY11380 (peptide)
peptide 1: SDKCSAGWLTMCQXLHLCPSH
peptide 2: CXPEKPYCFADPYXCA
modifications: not fully specified; BCY8920: N-terminal acetyl; tBuAla1, D-Lys4 bearing the linker, Nle12; Ci, Cii, Ciii on TATA scaffold; BCY10861: N-terminal acetyl; K(PYA)9 bearing the linker; Ci, Cii, Ciii on TATA scaffold
B11: heterotandem bicyclic peptide complex BCY10567 (peptide)
peptide 1: {Pent4ynoyl-βAla}-[Sar][Sar][Sar][Sar][Sar][Sar][Sar][Sar][Sar][Sar]CP[1Nal][dD]CM[hArg]DWSTP[Hyp]WC
peptide 2: Ac-C[tBuAla]PK[dA]PYCFADPY[Nle]CA
modifications: linker I:11-I:15-I:25, II:1-II:8-II:15 via TATA; not fully specified (C-terminus, bridges); numbers in words are those of the source; also: chains joined by PEG12 linker, triazole from PYA, linker on chain 2 Lys4 side chain
B12: heterotandem bicyclic peptide complex BCY10578 (peptide)
peptide 1: {Pent4ynoyl-βAla}-[Sar][Sar][Sar][Sar][Sar][Sar][Sar][Sar][Sar][Sar]CP[1Nal][dD]CM[hArg]DWSTP[Hyp]WC
peptide 2: Ac-C[tBuAla]PE[dA]PYCFADPY[Nle]C[Dap]
modifications: linker I:11-I:15-I:25, II:1-II:8-II:15 via TATA; not fully specified (C-terminus); numbers in words are those of the source; also: linker to a chain's N/C-terminus via CH2
B13: heterotandem bicyclic peptide complex BCY10570 (peptide)
peptide 1: {Pent4ynoyl-βAla}-[Sar][Sar][Sar][Sar][Sar][Sar][Sar][Sar][Sar][Sar]A[hArg]DC[Hyp]LVNPLCLHP[dD]W[hArg]C
peptide 2: Ac-C[tBuAla]PE[dK]PYCFADPY[Nle]CA
modifications: linker I:14-I:21-I:28, II:1-II:8-II:15 via TATA; not fully specified (C-terminus); numbers in words are those of the source; also: chains joined by PEG12 linker, triazole from PYA, linker on chain 2 D-Lys side chain
B14: heterotandem bicyclic peptide complex BCY10574 (peptide)
peptide 1: A[hArg]DC[Hyp]LVNPLCLHP[dD]W[hArg]C
peptide 2: Ac-C[tBuAla]PK(Pent4ynoyl)[dA]PYCFADPY[Nle]CA
modifications: linker I:4-I:11-I:18, II:1-II:8-II:15 via TATA; not fully specified (C-terminus); also: chains joined by PEG5 linker on chain 1 N-terminus, triazole to K(PYA)
B15: heterotandem bicyclic peptide complex BCY10575 (peptide)
peptide 1: A[hArg]DC[Hyp]LVNPLCLHP[dD]W[hArg]C
peptide 2: Ac-C[tBuAla]PE[dK](Pent4ynoyl)PYCFADPY[Nle]CA
modifications: linker I:4-I:11-I:18, II:1-II:8-II:15 via TATA; not fully specified (C-terminus); also: chains joined by PEG5 linker on chain 1 N-terminus, triazole to D-Lys(PYA)
B16: heterotandem bicyclic peptide complex BCY10576 (peptide)
peptide 1: A[hArg]DC[Hyp]LVNPLCLHP[dD]W[hArg]C
peptide 2: Ac-C[tBuAla]PE[dA]PYCFADPY[Nle]C-{Dap(PYA)}
modifications: linker I:4-I:11-I:18, II:1-II:8-II:15 via TATA; not fully specified (C-terminus); also: chains joined by PEG5 linker on chain 1 N-terminus, triazole to Dap(PYA)
B17: heterotandem bicyclic peptide complex BCY10568 (peptide)
peptide 1: {Pent4ynoyl-βAla}-[Sar][Sar][Sar][Sar][Sar][Sar][Sar][Sar][Sar][Sar]A[hArg]DC[Hyp]LVNPLCLHP[dD]W[hArg]C
peptide 2: Ac-C[tBuAla]PK[dA]PYCFADPY[Nle]CA
modifications: linker I:14-I:21-I:28, II:1-II:8-II:15 via TATA; not fully specified (C-terminus); numbers in words are those of the source; also: chains joined by PEG12 linker, triazole from PYA, linker on chain 2 Lys4 side chain

Target: CD137 expressed on cells (CHO cells expressing CD137); Jurkat cells of the Promega CD137 luciferase reporter … (UniProt Q07011 24-255, limits assumed)
Sequence (Q07011 24-255 limits assumed): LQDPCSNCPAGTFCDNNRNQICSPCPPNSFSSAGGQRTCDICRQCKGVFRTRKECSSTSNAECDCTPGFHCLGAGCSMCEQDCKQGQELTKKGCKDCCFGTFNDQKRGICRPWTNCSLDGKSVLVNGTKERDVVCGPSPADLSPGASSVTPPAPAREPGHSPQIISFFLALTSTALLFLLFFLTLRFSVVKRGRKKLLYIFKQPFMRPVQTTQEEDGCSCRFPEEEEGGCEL
Test: cell-based or functional assay

Row | Binder | EC50 (nM), CD137 reporter assay, co-culture with RKO (PD-L1) [nM] | Fold Induction over Background, CD137 reporter assay, co-culture with RKO (PD-L1) [fold] | EC50 (nM), CD137 reporter assay, co-culture with H1376 (Nectin4) [nM] | Fold Induction over Background, CD137 reporter assay, co-culture with H1376 (Nectin4) [fold] | Fold Induction over Background, CD137 reporter assay, co-culture with MC38 (mouse PD-L1) [fold]
1 | B1 | 27 | – | – | – | –
2 | B2 | 28 | 4 | – | – | –
3 | B3 | 40 | – | – | – | –
4 | B4 | – | – | 1.2 | 52 | –
5 | B5 | – | – | – | – | < 2
6 | B6 | 127 | – | – | – | –
7 | B7 | 28 | 3 | – | – | –
8 | B8 | 66 | – | – | – | –
9 | B9 | 68 | – | – | – | –
10 | B10 | 34 | – | – | – | –
11 | B11 | – | – | 1.7 | 45 | –
12 | B12 | – | – | 0.42 | – | –

Target: CD137 expressed on cells (CHO cells expressing CD137; Jurkat cells of the Promega CD137 luciferase reporter assay) (UniProt Q07011)
Sequence (Q07011 24-255 limits assumed): as above
Test: cell-based or functional assay

Row | Binder | EC50 (nM), CD137 reporter assay, co-culture with PC3 (EphA2) [nM] | Fold Induction over Background, CD137 reporter assay, co-culture with PC3 (EphA2) [fold]
13 | B13 | 0.41 | 38
14 | B14 | 1 | 32
15 | B15 | 0.62 | 38
16 | B16 | 0.51 | 38
17 | B17 | 0.25 | 32
